The values below come from patent publication US20230348605A1 (published 2023).

The term Kd denotes the constant that tells how readily two partners part at equilibrium. Low readings indicate a tighter complex, high ones a looser complex.

The target of test [1] is T1, EIIIB domain of fibronectin.
T1 construct: domain: EIIIB domain; also called recombinantly expressed EIIIB domain of FN
Briefly: BLI.

The target in test [2] is T2, FN-EIIIB in human patient tissue (PDAC stroma; metastases on a tissue array) (human, UniProt P02751 32-2477).
T2 construct: Endogenous protein in tissue sections; also called EIIIB expressed in human PDAC stroma; stromal FN-EIIIB
Description: immunohistochemistry on a multi-organ metastatic tissue array. The source says: To investigate the expression of EIIIB in metastasis samples from multiple patients, we stained a multi-organ tissue array of samples from various metastatic sites derived from 104 patients with NJB2-biotin. […] In parallel, similar results were obtained with a monoclonal anti-EIIIB antibody (AM3, data not shown). These metastases to multiple organs (21 distinct sites) were derived from 17 different primary sites, including rectum, pancreas, lung, ovary, stomach and thyroid among others (Table 4). Among the EIIIB-positive biopsies, ~32% were metastases to the lymph nodes at the metastatic sites (Table 4). This wide expression of EIIIB at metastatic sites in multiple organs and derived from multiple types of primary tumors further broadens the potential applications of NJB2-based imaging and therapeutic applications.

For test [3], the target named is T3, fibronectin (FN) containing the EIIIB domain, in the ECM of aortic endothelial cells from control/wild type … (mouse, UniProt P11276 33-2477).
T3 construct: whole, on cells; Protein stood in the cell-derived extracellular matrix, not on the cell membrane; also called EIIIB domain of FN
Description: biotinylated NJB2 detected with streptavidin-Alexa488 on endothelial cells and their ECM. The source says:
The NJB2 was site-specifically labelled with biotin via sortagging and detected with streptavidin-Alexa488. […] The αEIIIB control was cells stained with mouse monoclonal IgG specific to an epitope in the EIIIB domain of FN. The negative control, C, was unstained cells.

T3 sequence (P11276 33-2477): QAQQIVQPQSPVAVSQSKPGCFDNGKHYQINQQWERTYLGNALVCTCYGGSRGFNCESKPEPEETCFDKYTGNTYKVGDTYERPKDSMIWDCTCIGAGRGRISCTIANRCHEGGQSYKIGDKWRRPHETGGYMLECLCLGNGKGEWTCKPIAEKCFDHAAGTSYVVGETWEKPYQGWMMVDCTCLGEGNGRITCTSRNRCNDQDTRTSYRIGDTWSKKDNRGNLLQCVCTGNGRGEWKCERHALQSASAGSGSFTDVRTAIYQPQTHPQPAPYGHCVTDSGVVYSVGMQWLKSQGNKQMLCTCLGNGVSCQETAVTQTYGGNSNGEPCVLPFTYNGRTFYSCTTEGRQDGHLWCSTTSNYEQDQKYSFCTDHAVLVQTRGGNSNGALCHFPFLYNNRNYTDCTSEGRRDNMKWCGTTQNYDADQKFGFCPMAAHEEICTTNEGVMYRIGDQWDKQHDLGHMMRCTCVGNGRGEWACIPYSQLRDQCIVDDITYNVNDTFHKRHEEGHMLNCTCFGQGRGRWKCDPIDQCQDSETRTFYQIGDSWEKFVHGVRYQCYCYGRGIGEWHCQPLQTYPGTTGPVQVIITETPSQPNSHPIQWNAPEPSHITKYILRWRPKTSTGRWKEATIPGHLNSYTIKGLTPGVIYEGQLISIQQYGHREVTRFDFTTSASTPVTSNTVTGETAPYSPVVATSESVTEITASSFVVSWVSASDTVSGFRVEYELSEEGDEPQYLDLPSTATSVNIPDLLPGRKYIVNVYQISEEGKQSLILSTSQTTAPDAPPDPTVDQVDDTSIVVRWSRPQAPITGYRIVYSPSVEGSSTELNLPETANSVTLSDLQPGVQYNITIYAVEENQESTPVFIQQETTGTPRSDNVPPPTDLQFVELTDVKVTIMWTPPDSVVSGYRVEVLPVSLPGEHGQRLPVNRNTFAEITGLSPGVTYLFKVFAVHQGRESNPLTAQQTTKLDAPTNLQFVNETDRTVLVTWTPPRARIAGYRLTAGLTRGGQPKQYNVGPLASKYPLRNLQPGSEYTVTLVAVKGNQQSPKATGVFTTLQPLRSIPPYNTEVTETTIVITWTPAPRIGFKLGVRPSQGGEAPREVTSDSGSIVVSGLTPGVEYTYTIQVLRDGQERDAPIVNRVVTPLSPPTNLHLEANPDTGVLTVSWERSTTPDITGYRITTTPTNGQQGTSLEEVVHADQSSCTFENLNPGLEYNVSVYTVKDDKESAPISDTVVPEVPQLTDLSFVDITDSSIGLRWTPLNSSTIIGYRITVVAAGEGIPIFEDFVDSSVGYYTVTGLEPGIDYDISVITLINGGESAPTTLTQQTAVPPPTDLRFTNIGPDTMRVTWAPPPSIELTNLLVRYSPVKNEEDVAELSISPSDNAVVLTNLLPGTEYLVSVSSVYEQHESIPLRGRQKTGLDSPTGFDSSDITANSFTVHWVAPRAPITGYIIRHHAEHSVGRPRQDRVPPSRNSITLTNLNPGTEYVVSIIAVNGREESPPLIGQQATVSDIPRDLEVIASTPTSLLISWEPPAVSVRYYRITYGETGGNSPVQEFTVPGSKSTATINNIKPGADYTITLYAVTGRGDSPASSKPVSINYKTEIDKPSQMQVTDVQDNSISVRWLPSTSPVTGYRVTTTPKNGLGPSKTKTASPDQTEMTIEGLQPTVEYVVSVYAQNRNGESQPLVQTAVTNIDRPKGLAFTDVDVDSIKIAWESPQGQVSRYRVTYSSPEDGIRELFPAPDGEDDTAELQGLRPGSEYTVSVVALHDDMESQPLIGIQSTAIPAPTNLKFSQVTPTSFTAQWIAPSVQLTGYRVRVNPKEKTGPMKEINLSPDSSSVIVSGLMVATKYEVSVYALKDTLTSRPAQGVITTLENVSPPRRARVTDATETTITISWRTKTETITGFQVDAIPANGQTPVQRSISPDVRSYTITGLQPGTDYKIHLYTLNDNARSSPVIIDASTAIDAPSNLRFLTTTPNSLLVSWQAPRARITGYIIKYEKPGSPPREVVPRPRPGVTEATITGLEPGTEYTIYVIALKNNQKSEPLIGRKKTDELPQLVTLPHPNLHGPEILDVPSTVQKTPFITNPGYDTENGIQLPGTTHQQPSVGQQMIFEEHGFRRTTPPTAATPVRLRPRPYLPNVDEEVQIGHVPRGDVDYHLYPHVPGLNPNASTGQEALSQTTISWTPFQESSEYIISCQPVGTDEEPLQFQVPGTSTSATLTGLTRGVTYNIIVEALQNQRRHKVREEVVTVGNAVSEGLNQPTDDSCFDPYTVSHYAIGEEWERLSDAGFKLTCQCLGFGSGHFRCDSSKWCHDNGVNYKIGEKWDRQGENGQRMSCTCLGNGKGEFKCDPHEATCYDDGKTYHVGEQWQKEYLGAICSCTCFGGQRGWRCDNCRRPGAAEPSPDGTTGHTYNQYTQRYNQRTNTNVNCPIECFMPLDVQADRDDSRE
T2 sequence (P02751 32-2477): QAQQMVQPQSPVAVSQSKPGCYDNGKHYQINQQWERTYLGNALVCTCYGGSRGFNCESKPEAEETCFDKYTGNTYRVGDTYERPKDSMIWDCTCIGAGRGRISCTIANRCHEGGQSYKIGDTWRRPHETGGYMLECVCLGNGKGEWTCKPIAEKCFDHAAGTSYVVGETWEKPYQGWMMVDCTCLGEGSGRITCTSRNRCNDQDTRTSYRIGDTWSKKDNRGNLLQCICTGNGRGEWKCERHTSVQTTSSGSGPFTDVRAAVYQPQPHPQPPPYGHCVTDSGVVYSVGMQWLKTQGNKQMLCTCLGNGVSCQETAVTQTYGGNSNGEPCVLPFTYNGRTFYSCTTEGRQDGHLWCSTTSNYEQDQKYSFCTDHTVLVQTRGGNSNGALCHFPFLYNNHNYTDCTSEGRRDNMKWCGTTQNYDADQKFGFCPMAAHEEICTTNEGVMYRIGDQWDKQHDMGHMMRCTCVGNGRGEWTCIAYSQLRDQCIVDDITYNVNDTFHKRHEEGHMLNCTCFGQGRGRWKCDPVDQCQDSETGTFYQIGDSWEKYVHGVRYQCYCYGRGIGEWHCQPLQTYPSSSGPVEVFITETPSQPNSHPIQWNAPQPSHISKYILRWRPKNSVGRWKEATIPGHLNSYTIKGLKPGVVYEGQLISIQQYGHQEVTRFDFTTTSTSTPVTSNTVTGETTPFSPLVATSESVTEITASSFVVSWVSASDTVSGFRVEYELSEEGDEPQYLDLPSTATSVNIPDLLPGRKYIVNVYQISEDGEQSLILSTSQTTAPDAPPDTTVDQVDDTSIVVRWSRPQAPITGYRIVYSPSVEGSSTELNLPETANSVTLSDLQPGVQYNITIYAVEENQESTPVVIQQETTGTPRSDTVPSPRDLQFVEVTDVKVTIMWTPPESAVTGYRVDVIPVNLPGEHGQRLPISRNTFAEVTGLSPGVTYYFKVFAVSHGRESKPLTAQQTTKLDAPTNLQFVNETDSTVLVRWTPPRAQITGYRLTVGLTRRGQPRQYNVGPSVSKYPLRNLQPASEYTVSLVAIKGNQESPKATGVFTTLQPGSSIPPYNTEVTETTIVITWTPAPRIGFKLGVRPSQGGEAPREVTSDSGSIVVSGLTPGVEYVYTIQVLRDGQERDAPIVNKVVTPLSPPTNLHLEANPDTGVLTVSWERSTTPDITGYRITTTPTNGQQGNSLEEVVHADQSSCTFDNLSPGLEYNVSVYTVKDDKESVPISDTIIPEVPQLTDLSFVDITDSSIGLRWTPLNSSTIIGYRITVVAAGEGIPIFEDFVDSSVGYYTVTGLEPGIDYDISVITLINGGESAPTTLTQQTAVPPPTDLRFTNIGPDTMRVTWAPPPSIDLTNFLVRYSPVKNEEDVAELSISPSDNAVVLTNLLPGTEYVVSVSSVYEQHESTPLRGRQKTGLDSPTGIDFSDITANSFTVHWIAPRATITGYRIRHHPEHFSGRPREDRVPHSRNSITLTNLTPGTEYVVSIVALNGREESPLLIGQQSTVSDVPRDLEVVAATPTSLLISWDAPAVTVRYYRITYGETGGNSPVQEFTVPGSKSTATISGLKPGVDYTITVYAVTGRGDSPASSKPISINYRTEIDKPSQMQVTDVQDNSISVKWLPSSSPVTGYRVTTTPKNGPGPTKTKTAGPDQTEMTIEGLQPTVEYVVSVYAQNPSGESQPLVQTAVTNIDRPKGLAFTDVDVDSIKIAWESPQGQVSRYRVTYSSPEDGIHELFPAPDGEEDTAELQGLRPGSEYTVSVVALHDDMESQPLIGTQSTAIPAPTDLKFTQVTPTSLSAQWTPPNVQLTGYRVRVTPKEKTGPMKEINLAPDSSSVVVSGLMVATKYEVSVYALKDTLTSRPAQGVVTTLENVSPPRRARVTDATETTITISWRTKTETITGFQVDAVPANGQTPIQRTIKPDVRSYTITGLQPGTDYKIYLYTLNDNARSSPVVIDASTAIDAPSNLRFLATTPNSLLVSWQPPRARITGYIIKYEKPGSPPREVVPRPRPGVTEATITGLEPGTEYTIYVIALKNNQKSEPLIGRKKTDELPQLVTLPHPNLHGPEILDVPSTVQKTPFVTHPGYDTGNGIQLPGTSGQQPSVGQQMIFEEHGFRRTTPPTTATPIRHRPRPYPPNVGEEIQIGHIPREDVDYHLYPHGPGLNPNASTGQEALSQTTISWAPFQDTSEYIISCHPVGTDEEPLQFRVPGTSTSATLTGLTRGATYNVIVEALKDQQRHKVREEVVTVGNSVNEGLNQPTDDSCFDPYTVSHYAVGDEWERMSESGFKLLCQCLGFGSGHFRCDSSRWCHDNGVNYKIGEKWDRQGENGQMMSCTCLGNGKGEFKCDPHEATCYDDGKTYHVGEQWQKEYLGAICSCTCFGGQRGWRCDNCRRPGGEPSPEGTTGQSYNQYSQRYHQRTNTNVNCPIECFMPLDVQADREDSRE
T1 sequence (P02751 1271-1359): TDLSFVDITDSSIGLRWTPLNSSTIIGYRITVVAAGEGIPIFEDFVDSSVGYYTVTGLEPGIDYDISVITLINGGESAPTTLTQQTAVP

B1: NJB2 (VHH)
VHH: QVQLVETGGGLVQAGGSLRLSCAASGSTFSHNAGGWYRQAPEKQRELVAGISSDGNINYADSVKDRFTISRDNASNTMYLQMNNLKPEDTAVYVCNIRGSYGNTYYSRWGQGTQVTVSS
modifications: site-specifically labelled via sortagging (LPETG tag) with biotin, Texas Red or 64Cu in the staining and imaging assays
notes: After sortagging the C-terminus differs (label in place of the residues after LPET); also called VHH NJB2; VHH-NJB2
Take B1: the Kd in test [1] was about 4 nM. For the same molecule, the binding result in test [2] and in test [3] was “binds” in each case.
